Assay results published in publication PMC4022735, “Structural and Biochemical Characterization Reveals LysGH15 as an Unprecedented “EF-Hand-Like” Calcium-Binding Phage Lysin” (PLoS Pathogens, 2014).

Molecular target: T1, LysGH15 SH3b domain (residues 368–495) (staphylococcal phage GH15, 15N (and/or 13C) labelled for NMR; N-terminal SNA tag remnant omitted (PDB 2MK5 entity residues 4-131 = 368-495))
T1 chain: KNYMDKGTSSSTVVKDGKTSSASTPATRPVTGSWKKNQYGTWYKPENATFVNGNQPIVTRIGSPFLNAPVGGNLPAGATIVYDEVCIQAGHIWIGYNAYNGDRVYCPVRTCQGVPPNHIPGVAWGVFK
Assay: NMR titration; 1H-15N HSQC spectra of 15N-labelled SH3b on addition of the peptide (100 mM stock in the buffer of the SH3b sample); 298 K; KD from a fit of the chemical shift perturbations; fast exchange
Conditions: both partners purified

B1: peptide “AGGGGG” (peptide)
peptide: AGGGGG
notes: synthetic peptide used as previously reported for the SH3b domain of ALE-1; Not a stretch of a named natural protein; also called the peptide; source: synthetic peptide (Sangon Biotech (Shanghai) Co., Ltd.)
B1 was tested, and the Kd was roughly 3000 µM.
